T1: Human CD137 shuffle 3 (amino acids 115-138 replaced by wild boar CD137) (human, amino acids 115-138 from wild …, UniProt Q07011 24-255)
T1 construct: also called shuffle construct 3
T1 chain: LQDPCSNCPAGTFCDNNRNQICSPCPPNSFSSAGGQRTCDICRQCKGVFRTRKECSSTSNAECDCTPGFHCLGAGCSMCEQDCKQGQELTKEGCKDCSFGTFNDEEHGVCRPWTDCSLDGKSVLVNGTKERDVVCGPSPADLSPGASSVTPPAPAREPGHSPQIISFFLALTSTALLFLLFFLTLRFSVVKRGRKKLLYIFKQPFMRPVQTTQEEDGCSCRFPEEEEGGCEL

T2: Human CD137 shuffle 4 (amino acids 89-114 replaced by wild boar CD137) (human, amino acids 89-114 from wild boar, UniProt Q07011 24-255)
T2 construct: also called shuffle construct 4
T2 chain: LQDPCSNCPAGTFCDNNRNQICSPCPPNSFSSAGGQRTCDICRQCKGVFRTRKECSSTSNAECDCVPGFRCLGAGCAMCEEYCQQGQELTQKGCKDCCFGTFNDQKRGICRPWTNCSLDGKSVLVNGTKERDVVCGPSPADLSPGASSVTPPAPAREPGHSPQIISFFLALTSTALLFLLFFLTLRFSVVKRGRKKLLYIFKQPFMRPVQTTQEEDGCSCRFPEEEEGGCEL

T3: Human CD137 shuffle 1 (amino acids 162-186 replaced by wild boar CD137) (human, amino acids 162-186 from wild …, UniProt Q07011 24-255)
T3 construct: also called shuffle construct 1
T3 chain: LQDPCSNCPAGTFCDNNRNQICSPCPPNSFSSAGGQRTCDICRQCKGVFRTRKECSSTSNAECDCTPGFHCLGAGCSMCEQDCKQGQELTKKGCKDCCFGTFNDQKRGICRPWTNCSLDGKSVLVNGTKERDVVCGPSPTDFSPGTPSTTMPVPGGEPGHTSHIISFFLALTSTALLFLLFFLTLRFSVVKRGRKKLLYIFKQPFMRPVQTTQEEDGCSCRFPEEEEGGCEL

T4: Human CD137 shuffle 2 (amino acids 139-161 replaced by wild boar CD137) (human, amino acids 139-161 from wild …, UniProt Q07011 24-255)
T4 construct: also called shuffle construct 2
T4 chain: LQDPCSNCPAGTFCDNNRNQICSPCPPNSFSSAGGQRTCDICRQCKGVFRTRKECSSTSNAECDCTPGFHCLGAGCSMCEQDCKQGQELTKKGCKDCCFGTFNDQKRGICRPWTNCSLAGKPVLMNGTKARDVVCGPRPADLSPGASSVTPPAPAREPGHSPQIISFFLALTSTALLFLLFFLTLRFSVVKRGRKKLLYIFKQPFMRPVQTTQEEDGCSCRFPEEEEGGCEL

T5: Human CD137 shuffle 5 (amino acids 48-88 replaced by African elephant CD137) (human, amino acids 48-88 from African …, UniProt Q07011 24-255)
T5 construct: also called shuffle construct 5
T5 chain: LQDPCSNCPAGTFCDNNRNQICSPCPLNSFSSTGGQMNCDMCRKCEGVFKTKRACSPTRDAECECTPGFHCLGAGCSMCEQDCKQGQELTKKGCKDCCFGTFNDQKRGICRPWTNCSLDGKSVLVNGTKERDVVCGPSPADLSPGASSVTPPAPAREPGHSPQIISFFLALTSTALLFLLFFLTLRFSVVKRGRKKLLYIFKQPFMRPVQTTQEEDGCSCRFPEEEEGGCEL

T6: Human CD137 shuffle 6 (amino acids 24-47 replaced by wild boar CD137) (human, amino acids 24-47 from wild boar, UniProt Q07011 26-200)
T6 construct: also called shuffle construct 6
T6 chain: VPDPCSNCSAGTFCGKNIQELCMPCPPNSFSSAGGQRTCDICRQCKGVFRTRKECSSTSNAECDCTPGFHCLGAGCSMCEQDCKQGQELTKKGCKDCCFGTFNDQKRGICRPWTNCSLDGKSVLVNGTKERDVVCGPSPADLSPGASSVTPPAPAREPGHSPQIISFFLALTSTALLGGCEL


What was measured:
[1] = biological target: T1, Human CD137 shuffle 3 (amino acids …); test: flow cytometry on transfected HEK293T-17 cells
Procedure: (§1) 3×10⁶ HEK293T-17 cells were seeded in T75 culture flasks (Greiner Bio-One, cat. no. 658175) in 20 mL RPMI 1640 GlutaMAX medium containing 10% FCS (Biochrom, cat. no. S 0115). After O/N incubation, cells were transiently […] with expression vectors encoding the shuffle constructs or the wild boar, African elephant or human CD137 downstream of a constitutively active human elongation factor-1 alpha (EF-1 alpha) promotor using TransIT®-LT1 Transfection Reagent, Mirus Bio (VWR International, cat. no. 731-0029), according to the manufacturer's instructions. The next day, cells were harvested using 1.5 mL Accutase (Sigma Aldrich, cat. no. A6964) (incubation at 37° C. for 5 min.) and flow cytometry was performed, essentially as described in Example 4, to measure surface expression of the shuffle constructs and the human, African elephant and wild boar CD137 and to measure binding of the antibody clones to the different shuffle constructs. To measure cell surface expression of the constructs, transduced cells were incubated with 1 μg/mL goat polyclonal anti-human CD137 (R&D Systems, cat. no. AF838) in FACS buffer (D-PBS supplemented with 5 mM EDTA [Sigma Aldrich, cat. no. 03690] and 5% (v/v) fetal bovine serum [FBS, Biochrom, cat. no. S 0115]) (4° C., 20 min.), followed by incubation with APC-labeled anti-goat IgG (H+L) (R&D Systems, cat. no. F0108) (4° C., 20 min.). Binding of the different CD137 antibody clones to cells expressing the shuffle constructs was measured by incubation of the transduced cells with 1 μg/mL of the antibody clones, followed by APC-labeled AffiniPure F(ab′)2 Fragment (1:50 final dilution; Jackson, cat. no. 109-136-127).

[2] = biological target: T2, Human CD137 shuffle 4 (amino acids …); test: flow cytometry on transfected HEK293T-17 cells
Procedure: as §1

[3] = biological target: T3, Human CD137 shuffle 1 (amino acids …); test: flow cytometry on transfected HEK293T-17 cells, 1 µg/mL antibody
Procedure: as §1

[4] = biological target: T4, Human CD137 shuffle 2 (amino acids …); test: as above
Procedure: as §1

[5] = biological target: T5, Human CD137 shuffle 5 (amino acids …); test: as above
Procedure: as §1

Human CD137 (TNR9_Human) [6] = biological target: T7, Human CD137 (TNR9_Human) (human, UniProt Q07011 24-255); test: flow cytometry, HEK293-T17 cells transiently transfected with human CD137, antibody at 1 µg/mL, APC-labeled F(ab')2 secondary [cont.]
T7 construct: Full-length human CD137 expressed on HEK293T-17, NF-kB/293/GFP-Luc or K562 cells, or native on T cells; also called hCD137 wt; 4-1BB
Procedure: (§2) FIG. 4: Binding of CD137 antibody clones to CD137 shuffle constructs expressed on HEK293-T17 cells. HEK293-T17 cells were transfected with the CD137 shuffle constructs, and with human CD137 (hCD137 wt), African elephant of wild boar CD137, as indicated. Binding of the different CD137 antibody clones to these constructs expressed on HEK293-T17 cells was measured by flow cytometry. Staining with polyclonal anti-CD137 antibody is shown as a control.
as §1

[7] = biological target: T5, Human CD137 shuffle 5 (amino acids …); test: flow cytometry on transfected HEK293T-17 cells
Procedure: as §1

[8] = biological target: T1, Human CD137 shuffle 3 (amino acids …); test: flow cytometry on transfected HEK293T-17 cells, 1 µg/mL antibody
Procedure: as §1

[9] = biological target: T2, Human CD137 shuffle 4 (amino acids …); test: as above
Procedure: as §1

[10] = biological target: T6, Human CD137 shuffle 6 (amino acids …); test: flow cytometry on transfected HEK293T-17 cells
Procedure: as §1

Human CD137 (TNR9_Human) [11] = biological target: T7, Human CD137 (TNR9_Human); test: flow cytometry, HEK293-T17 cells transiently transfected with human CD137, antibody at 1 µg/mL, APC-labeled F(ab')2 secondary
Procedure: as §2, §1
Target sequence in this assay (Q07011 24-255): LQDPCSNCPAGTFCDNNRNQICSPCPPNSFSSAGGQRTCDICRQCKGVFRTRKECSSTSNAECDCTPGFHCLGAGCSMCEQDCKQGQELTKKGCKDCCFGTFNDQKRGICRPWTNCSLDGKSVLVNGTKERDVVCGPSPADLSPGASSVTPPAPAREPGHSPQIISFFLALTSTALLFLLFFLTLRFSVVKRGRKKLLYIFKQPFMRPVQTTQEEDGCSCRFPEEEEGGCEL

Binder | binding result [1] | binding result [2] | binding result [3] | binding result [4] | binding result [5] | binding result (Human CD137 (TNR9_Human) [6]) | binding result [7] | binding result [8] | binding result [9] | binding result [10] | binding result (Human CD137 (TNR9_Human) [11])
CD137 antibody clone 011 (rabbit) (antibody, human IgG1, kappa, V domains shown, also called Clone 11; CD137 clone 011) VH: QSLEESGGRLVTPGTPLTLTCTVSGIDLSSYHMCWVRQAPGKGLEYIGYIAYGGNTYYANWAKGRFTISKTSTTVDLRITSPTTEDTATYFCARGYSEDSYWGLWGPGTLVTVSS VL: AYDMTQTPASVEAAVGGTVTIKCQASQNIENYLAWYQQKPGQPPKLLIYDTSKLTSGVPSRFSGSGSGTDFTLTISGVQSDDAATYYCQQDYGIIFVDNIFGGGTEVVVKR | no binding (tested: 1 µg/mL) | no binding (tested: 1 µg/mL) | binds | binds | binds | binds | – | – | – | – | –
CD137 antibody clone 009 (rabbit) (antibody, human IgG1, kappa, V domains shown, also called Clone 9; CD137 clone 009) VH: QSLEESGGRLVTPGTPLTLTCTVSGFSLNDYWMSWVRQAPGKGLEWIGYIDVGGSLYYASWAKGRFTISRTSTTVDLKMTSLTTEDTATYFCARGGLTYGFDLWGPGTLVTVSS VL: DIVMTQTPASVSEPVGGTVTINCQASEDISSYLAWYQQKPGQRPKRLIYGASDLASGVPSRFSASGSGTEYALTISDLESADAATYYCHYYATISGLGVAFGGGTEVVVKR | – | – | binds | binds | – | binds | no binding (tested: 1 µg/mL) | binds | binds | – | –

Results, then the binder that gave them:

binding result [1] | binding result [2] | binding result [3] | binding result [4] | binding result [5] | binding result (Human CD137 (TNR9_Human) [6]) | binding result [7] | binding result [8] | binding result [9] | binding result [10] | binding result (Human CD137 (TNR9_Human) [11]) | Binder
– | – | binds | binds | binds | – | – | binds | binds | no binding (tested: 1 µg/mL) | binds | CD137 antibody clone 005 (rabbit) (antibody, human IgG1, kappa, V domains shown, also called Clone 5; CD137 clone 005) VH: QSVEESGGRLVTPGTPLTLTCTASGFTISDFHVTWVRQAPGKGLEWIGTIITSASTTAYATWARGRFTISKSSTTVNLKIVSPTTEDTATYFCARSTYTDTSGYYFDFWGQGTLVTVSS VL: AQVLTQTASPVSAAVGGTVIINCQSSQSIYNGNRLSWYQQKPGQPPKLLIYSASTLASGVSSRFKGSGSGTQFTLAISDVQSDDAATYYCLGSYDCDSADCFAFGGGTEVVVER
no binding (tested: 1 µg/mL) | no binding (tested: 1 µg/mL) | binds | binds | binds | – | – | – | – | – | binds | CD137 antibody clone 004 (rabbit) (antibody, human IgG1, kappa, V domains shown, also called Clone 4; CD137 clone 004) VH: QSLEESGGRLVTPGTPLTLTCTASGFSLSRYDMSWVRQAPGKGLEYIGVISSSGGTNYANWAKGRFTISKTSTTVDLKITSPTTEDTATYFCAREGDYWDFNLWGPGTLVTVSS VL: AQVLTQTPSSVSAAVGGTVTINCQASQSISNLLAWYQQKPGQPPKLLIYGASTLASGVPSRFSGSGSGTEFTLTISDLESDDAATYYCAGGFPGLDTVAAFGGGTEAVVTR
